B1: Golgi resident protein GCP60 (Homo sapiens), Q9H3P7 (parent)
chain: MAAVLNAERLEVSVDGLTLSPDPEERPGAEGAPLLPPPLPPPSPPGSGRGPGASGEQPEPGEAAAGGAAEEARRLEQRWGFGLEELYGLALRFFKEKDGKAFHPTYEEKLKLVALHKQVLMGPYNPDTCPEVGFFDVLGNDRRREWAALGNMSKEDAMVEFVKLLNRCCHLFSTYVASHKIEKEEQEKKRKEEEERRRREEEERERLQKEEEKRRREEEERLRREEEERRRIEEERLRLEQQKQQIMAALNSQTAVQFQQYAAQQYPGNYEQQQILIRQLQEQHYQQYMQQLYQVQLAQQQAALQKQQEVVVAGSSLPTSSKVNATVPSNMMSVNGQAKTHTDSSEKELEPEAAEEALENGPKESLPVIAAPSMWTRPQIKDFKEKIQQDADSVITVGRGEVVTVRVPTHEEGSYLFWEFATDNYDIGFGVYFEWTDSPNTAVSVHVSESSDDDEEEEENIGCEEKAKKNANKPLLDEIVPVYRRDCHEEVYAGSHQYPGRGVYLLKFDNSYSLWRSKSVYYRVYYTR
partner: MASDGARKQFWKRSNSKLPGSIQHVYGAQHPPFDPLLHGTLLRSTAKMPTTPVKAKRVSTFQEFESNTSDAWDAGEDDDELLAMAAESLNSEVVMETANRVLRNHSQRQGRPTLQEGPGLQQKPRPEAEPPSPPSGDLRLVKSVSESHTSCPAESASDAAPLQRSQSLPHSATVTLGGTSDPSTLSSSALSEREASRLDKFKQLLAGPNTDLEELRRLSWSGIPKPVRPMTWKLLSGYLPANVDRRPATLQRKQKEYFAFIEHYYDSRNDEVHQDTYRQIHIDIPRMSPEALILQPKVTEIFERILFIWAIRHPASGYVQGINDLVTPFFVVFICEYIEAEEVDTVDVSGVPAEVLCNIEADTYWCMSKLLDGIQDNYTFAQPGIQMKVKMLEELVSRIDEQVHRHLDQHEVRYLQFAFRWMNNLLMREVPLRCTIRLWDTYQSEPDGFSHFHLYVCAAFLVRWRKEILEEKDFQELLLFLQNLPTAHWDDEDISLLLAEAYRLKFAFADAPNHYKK

Variants of: B1
Details: with tb22a_human TBC1D22A

With MAAVLNAERLEVSVDGLTLSPDPEERPGAEGAPLLPPPLPPPSPPGSGRGPGASGEQPEPGEAAAGGAAEEARRLEQRWGFGLEELYGLALRFFKEKDGKAFHPTYEEKLKLVALHKQVLMGPYNPDTCPEVGFFDVLGNDRRREWAALGNMSKEDAMVEFVKLLNRCCHLFSTYVASHKIEKEEQEKKRKEEEERRRREEEERERLQKEEEKRRREEEERLRREEEERRRIEEERLRLEQQKQQIMAALNSQTAVQFQQYAAQQYPGNYEQQQILIRQLQAAAAQQYMQQLYQVQLAQQQAALQKQQEVVVAGSSLPTSSKVNATVPSNMMSVNGQAKTHTDSSEKELEPEAAEEALENGPKESLPVIAAPSMWTRPQIKDFKEKIQQDADSVITVGRGEVVTVRVPTHEEGSYLFWEFATDNYDIGFGVYFEWTDSPNTAVSVHVSESSDDDEEEEENIGCEEKAKKNANKPLLDEIVPVYRRDCHEEVYAGSHQYPGRGVYLLKFDNSYSLWRSKSVYYRVYYTR [E282A;Q283A;H284A;Y285A] as the variant, how does the “effect of a mutation on the interaction” value read?
Its value is “disrupting interaction strength”.

With MAAVLNAERLEVSVDGLTLSPDPEERPGAEGAPLLPPPLPPPSPPGSGRGPGASGEQPEPGEAAAGGAAEEARRLEQRWGFGLEELYGLALRFFKEKDGKAFHPTYEEKLKLVALHKQVLMGPYNPDTCPEVGFFDVLGNDRRREWAALGNMSKEDAMVEFVKLLNRCCHLFSTYVASHKIEKEEQEKKRKEEEERRRREEEERERLQKEEEKRRREEEERLRREEEERRRIEEERLRLEQQKQQIMAALNSQTAAAAQQYAAQQYPGNYEQQQILIRQLQEQHYQQYMQQLYQVQLAQQQAALQKQQEVVVAGSSLPTSSKVNATVPSNMMSVNGQAKTHTDSSEKELEPEAAEEALENGPKESLPVIAAPSMWTRPQIKDFKEKIQQDADSVITVGRGEVVTVRVPTHEEGSYLFWEFATDNYDIGFGVYFEWTDSPNTAVSVHVSESSDDDEEEEENIGCEEKAKKNANKPLLDEIVPVYRRDCHEEVYAGSHQYPGRGVYLLKFDNSYSLWRSKSVYYRVYYTR [V256A;Q257A;F258A] as the variant, how does the “effect of a mutation on the interaction” value read?
Its value is “disrupting interaction strength”.

How did the “effect of a mutation on the interaction” value turn out when MAAVLNAERLEVSVDGLTLSPDPEERPGAEGAPLLPPPLPPPSPPGSGRGPGASGEQPEPGEAAAGGAAEEARRLEQRWGFGLEELYGLALRFFKEKDGKAFHPTYEEKLKLVALHKQVLMGPYNPDTCPEVGFFDVLGNDRRREWAALGNMSKEDAMVEFVKLLNRCCHLFSTYVASHKIEKEEQEKKRKEEEERRRREEEERERLQKEEEKRRREEEERLRREEEERRRIEEERLRLEQQKQQIMAALNSQTAVQFQQYAAQQYPGNYEQQQILIRQLQEQHYQQYMQQLYQVQLAQQQAALQKQQEVVVAGSSLPTSSKVNATVPSNMMSVNGQAKTHTDSSEKELEPEAAEEALENGPKESLPVIAAPSMWTRPQIKDFKEKIQQDADSVITVGRGEVVTVRVPTHEEGSYLFWEFATDNYDIGFGVYFEWTDSPNTAVSVHVSESSDDDEEEEENIGCEEKAKKNANKPLLDEIVPVYRRDCHEEVYAGSHQYPGRGVYLLKFDNAAALWRSKSVYYRVYYTR [S511A;Y512A;S513A] was run?
Its value is “with no effect”.

With MAAVLNAERLEVSVDGLTLSPDPEERPGAEGAPLLPPPLPPPSPPGSGRGPGASGEQPEPGEAAAGGAAEEARRLEQRWGFGLEELYGLALRFFKEKDGKAFHPTYEEKLKLVALHKQVLMGPYNPDTCPEVGFFDVLGNDRRREWAALGNMSKEDAMVEFVKLLNRCCHLFSTYVASHKIEKEEQEKKRKEEEERRRREEEERERLQKEEEKRRREEEERLRREEEERRRIEEERLRLEQQKQQIMAALNSQTAVQFQQYAAQQYPGNYEQQQILIRQLQEQHYQQYMQQLYQVQLAQQQAALQKQQEVVVAGSSLPTSSKVNATVPSNMMSVNGQAKTHTDSSEKELEPEAAEEALENGPKESLPVIAAPSMWTRPQIKDFKEKIQQDADSVITVGRGEVVTVRVPTHEEGSYLAAAAATDNYDIGFGVYFEWTDSPNTAVSVHVSESSDDDEEEEENIGCEEKAKKNANKPLLDEIVPVYRRDCHEEVYAGSHQYPGRGVYLLKFDNSYSLWRSKSVYYRVYYTR [F417A;W418A;E419A;F420A] as the variant, how does the “effect of a mutation on the interaction” value read?
Its value is “with no effect”.

With MAAVLNAERLEVSVDGLTLSPDPEERPGAEGAPLLPPPLPPPSPPGSGRGPGASGEQPEPGEAAAGGAAEEARRLEQRWGFGLEELYGLALRFFKEKDGKAFHPTYEEKLKLVALHKQVLMGPYNPDTCPEVGFFDVLGNDRRREWAALGNMSKEDAMVEFVKLLNRCCHLFSTYVASHKIEKEEQEKKRKEEEERRRREEEERERLQKEEEKRRREEEERLRREEEERRRIEEERLRLEQQKQQIMAALNSQTAVQFQQYAAQQYPGNYEQQQILIRQLQEQHYQQYMQQLYQVQLAQQQAALQKQQEVVVAGSSLPTSSKVNATVPSNMMSVNGQAKTHTDSSEKELEPEAAEEALENGPKESLPVIAAPSMWTRPQIKDFKEKIQQDADSVITVGRGEVVTVRVPTHEEGSYLFWEFATDNYDIGFGVYAAATDSPNTAVSVHVSESSDDDEEEEENIGCEEKAKKNANKPLLDEIVPVYRRDCHEEVYAGSHQYPGRGVYLLKFDNSYSLWRSKSVYYRVYYTR [F433A;E434A;W435A] as the variant, how does the “effect of a mutation on the interaction” value read?
The value was “with no effect”.

Which “effect of a mutation on the interaction” value does the source give for MAAVLNAERLEVSVDGLTLSPDPEERPGAEGAPLLPPPLPPPSPPGSGRGPGASGEQPEPGEAAAGGAAEEARRLEQRWGFGLEELYGLALRFFKEKDGKAFHPTYEEKLKLVALHKQVLMGPYNPDTCPEVGFFDVLGNDRRREWAALGNMSKEDAMVEFVKLLNRCCHLFSTYVASHKIEKEEQEKKRKEEEERRRREEEERERLQKEEEKRRREEEERLRREEEERRRIEEERLRLEQQKQQIMAALNSQTAVQFQQYAAQQYPGNYEQQQILIRQLQEQHYQQYMQQLYQVQLAQQQAALQKQQEVVVAGSSLPTSSKVNATVPSNMMSVNGQAKTHTDSSEKELEPEAAEEALENGPKESLPVIAAPSMWTRPQIKDFKEKIQQDADSVITVGRGEVVTVRVPTHEEGAAAFWEFATDNYDIGFGVYFEWTDSPNTAVSVHVSESSDDDEEEEENIGCEEKAKKNANKPLLDEIVPVYRRDCHEEVYAGSHQYPGRGVYLLKFDNSYSLWRSKSVYYRVYYTR [S414A;Y415A;L416A] here?
The value was “with no effect”.
